According to patent US20080050380A1:

Tests used:
[1] = target: baboon GPVI on baboon platelets (baboon); test: flow cytometry on washed baboon platelets
[2] = target: human TANGO 268 (glycoprotein VI, GPVI), full length (human) (UniProt Q9HCN6); test: flow cytometry on washed human platelets
[3] = target: soluble human GPVI-Fc (the extracellular domain of GPVI fused to Fc) (human) (UniProt Q9HCN6); test: ELISA, 5 nM GPVI-Fc with 10 µg/ml antibody on collagen-coated wells; collagen is the blocked partner
[4] = target: soluble human GPVI-Fc (the extracellular domain of GPVI fused to Fc) (human) (UniProt Q9HCN6); test: SPR (BIAcore), GPVI-Fc coupled to the chip, bivalent model
[5] = target: soluble human GPVI-Fc (the extracellular domain of GPVI fused to Fc) (human) (UniProt Q9HCN6); test: 125I-convulxin binding to GPVI-Fc captured on mAb 1P10.2, 10 µg/ml antibody; convulxin is the blocked partner
[6] = target: collagen type I; test: cell-based or functional assay

Sequence of soluble human GPVI-Fc (the extracellular domain of GPVI fused to Fc) (human) (Q9HCN6 other isoform, or with tags, fused parts or gaps): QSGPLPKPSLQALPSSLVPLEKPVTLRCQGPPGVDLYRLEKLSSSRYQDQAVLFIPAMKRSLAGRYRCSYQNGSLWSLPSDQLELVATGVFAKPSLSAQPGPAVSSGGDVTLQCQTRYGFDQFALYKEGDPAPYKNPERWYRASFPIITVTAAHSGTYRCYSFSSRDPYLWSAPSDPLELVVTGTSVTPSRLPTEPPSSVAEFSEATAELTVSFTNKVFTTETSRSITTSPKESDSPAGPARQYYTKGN
Sequence of human TANGO 268 (glycoprotein VI, GPVI), full length (human) (Q9HCN6 other isoform, or with tags, fused parts or gaps): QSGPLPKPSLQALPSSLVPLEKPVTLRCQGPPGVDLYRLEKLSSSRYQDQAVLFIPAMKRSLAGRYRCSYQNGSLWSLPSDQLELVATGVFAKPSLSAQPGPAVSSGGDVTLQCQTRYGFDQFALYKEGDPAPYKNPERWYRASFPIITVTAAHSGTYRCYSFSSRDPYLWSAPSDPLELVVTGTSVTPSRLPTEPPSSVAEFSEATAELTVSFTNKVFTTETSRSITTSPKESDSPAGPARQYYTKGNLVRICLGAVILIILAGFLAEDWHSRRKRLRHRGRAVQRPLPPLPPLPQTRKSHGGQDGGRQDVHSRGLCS

concentration of rhusGPVI:Fc needed to inhibit collagen-induced activation, against that needed for Cvx [6] | Substance | Baboon fluorescence intensity [1] | Baboon platelets % positive [1] | Human fluorescence intensity [2] | Human platelets % positive [2] | % of Inhibition of collagen binding of hrGPVI [3] | Kd [4] | % of Inhibition of convulxin binding of hrGPVI [5]
 | mouse monoclonal antibody produced by hybridoma cell line 9012.2 | 18 | 33.8% | 14 | 21% | 58% | 18 nM | 75%
10 fold | recombinant human soluble GPVI:Fc fusion protein (rhusGPVI:Fc) (from UniProt Q9HCN6 21-269) |  |  |  |  |  |  | 
